Experimental data reported in patent publication US20120156198A1 (Hoffmann-La Roche, published 2012).

What was measured:
Test in all cases: ELISA, hFc fusion protein captured on anti-human Fc
[1] = molecular target: T1, rhIL-1R3/hFc (R&D Systems, Cat. No. 676-CP) (human, UniProt Q9NPH3 21-359, limits assumed)
T1 construct: Bought; not shown: human Fc (hFc) of the commercial protein
T1 sequence (looked up): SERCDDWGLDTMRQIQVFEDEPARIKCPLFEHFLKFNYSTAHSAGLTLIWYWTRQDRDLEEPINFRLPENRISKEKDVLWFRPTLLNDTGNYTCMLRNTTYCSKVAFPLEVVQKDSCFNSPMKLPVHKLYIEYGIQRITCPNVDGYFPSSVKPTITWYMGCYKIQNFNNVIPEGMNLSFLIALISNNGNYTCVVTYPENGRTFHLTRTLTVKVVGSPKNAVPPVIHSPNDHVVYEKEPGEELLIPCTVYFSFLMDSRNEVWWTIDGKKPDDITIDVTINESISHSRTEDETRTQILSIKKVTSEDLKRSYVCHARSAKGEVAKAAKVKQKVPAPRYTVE
Method: (§1) The test was performed on 384-well microtiter plates (MaxiSorp™, Thermo Scientific Nunc, DK, Cat. No. 464718) at RT. After each incubation step, plates were washed 3 times with PBST. At the beginning, plates were coated with 0.5 μg/ml goat anti-human IgG Fc fragment (Jackson 1 mm. Res., US, Cat. No. 109-006-170) for at least 2 hours (h). Thereafter the wells were blocked with PBS supplemented with 0.2% Tween®-20 and 2% BSA (Roche Diagnostics GmbH, DE) for 1 h. 0.2 μg/ml of recombinant human IL-18Rα-Fc fusion protein (R&D Systems, UK, Cat. No. 816-LR) was captured on plate for 1 h. For testing the binding of antibodies to other proteins of the IL-1 receptor family 0.2 μg/ml of the following recombinant human proteins conjugated to human Fc (hFc) were captured: [0194] rhIL-1RI/hFc (R&D Systems, UK, Cat. No. 269-1R) [0195] rhIL-1sRII/hFc (R&D Systems, UK, Cat. No. 263-2R) [0196] rhIL-1R3/hFc (R&D Systems, UK, Cat. No. 676-CP) [0197] rhIL-2Rα/hFc (R&D Systems, UK, Cat. No. 1020-RL) [0198] rhIL-7Rα/hFc (R&D Systems, UK, Cat. No. 306-IR) [0199] rhIL-15R/hFc (R&D Systems, UK, Cat. No. 147-IR) [0200] rhST-2/hFc (R&D Systems, UK, Cat. No. 523-ST)
(§2) After washing the plate, dilutions of purified antibodies in PBS with 0.05% BSA and 0.2% Tween®-20 were incubated with the receptor proteins for 1 h. Binding of antibodies was detected with 1:2000 diluted horseradish peroxidase (HRP)-conjugates of anti-mouse IgG (GE Healthcare, UK, Cat. No. NA9310V). After 1 h the plates were washed 6 times with PBST and developed with freshly prepared BM Blue® POD substrate solution (BM Blue®: 3,3″-5,5″-Tetramethylbenzidine, Roche Diagnostics GmbH, DE, Cat. No. 11484281001) for 30 minutes at RT. Absorbance was measured at 370 nm. The values were corrected for the control without antibody.

[2] = molecular target: T2, rhIL-2Rα/hFc (R&D Systems, Cat. No. 1020-RL) (human, UniProt P01589 22-213)
T2 construct: Bought; not shown: human Fc (hFc) of the commercial protein
T2 sequence (looked up): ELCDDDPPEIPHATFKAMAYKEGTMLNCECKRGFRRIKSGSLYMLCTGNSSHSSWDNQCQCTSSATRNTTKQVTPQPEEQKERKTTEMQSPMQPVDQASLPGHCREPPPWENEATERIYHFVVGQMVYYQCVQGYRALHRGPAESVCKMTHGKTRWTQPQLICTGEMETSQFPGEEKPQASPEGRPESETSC
Method: as §1, §2

[3] = molecular target: T3, rhST-2/hFc (R&D Systems, Cat. No. 523-ST) (human, UniProt Q01638-2 19-328, limits assumed)
T3 construct: Bought; not shown: human Fc (hFc) of the commercial protein
T3 sequence (looked up): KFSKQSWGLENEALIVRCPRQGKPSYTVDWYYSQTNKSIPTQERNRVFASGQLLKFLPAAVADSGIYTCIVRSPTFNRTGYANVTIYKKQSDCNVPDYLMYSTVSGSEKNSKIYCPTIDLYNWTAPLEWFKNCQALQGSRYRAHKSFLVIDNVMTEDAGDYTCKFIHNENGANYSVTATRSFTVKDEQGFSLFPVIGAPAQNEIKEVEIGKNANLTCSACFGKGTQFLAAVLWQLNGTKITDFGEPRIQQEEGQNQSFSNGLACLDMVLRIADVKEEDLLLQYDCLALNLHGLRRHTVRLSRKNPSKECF
Method: as §1, §2

absorbance at 370 nm (corrected for the control without antibody) [1]: 0.02
absorbance at 370 nm (corrected for the control without antibody) [2]: 0.02
absorbance at 370 nm (corrected for the control without antibody) [3]: 0.02
B1: Mab 2D11 (antibody, V domains shown)
VH: QVQLQQPGAELVKPGASVKMSCKASDYTFTSNWMHWVKQRPGQGLEWIGTIDPSDSYTYYNQKFKGKATLTVDTSSSTAYMHLSSLTSEDSAVYYCTTSGDYDADRYFDVWGAGTTVTVSS
VL: DIVLTQSPASLGVSLGQRATISCRASKSVSTSGDSYMHWYQQKPGQSPKLLIYLASNLESGVPARFSGSGSGTDFTLNIHPVEEEDAATYYCQQSRELPLSFGAGTKLELK
notes: Monoclonal antibody from immunized NMRI mice; detected with anti-mouse IgG1-PE / anti-mouse IgG; also called F20.2D11
